From FireProtDB

B1: FMN-dependent NADH:quinone oxidoreductase 1, Q88IY3 (parent)
chain: MKLLHIDSSILGDNSASRQLSREVVEAWKAADPSVEVVYRDLAADAIAHFSAATLVAAGTPEDVRDAAQAFEAKLSAETLEEFLAADAVVIGAPMYNFTVPTQLKAWIDRVAVAGKTFRYTEAGPQGLCGNKKVVLVSTAGGLHAGQPTGAGHEDFLKVFLGFIGITDLEIVRAHGLAYGPEQRSQAIDAAQAQIASELFAAA
B2: Formate dehydrogenase, O13437 (parent)
chain: MKIVLVLYDAGKHAADEEKLYGCTENKLGIANWLKDQGHELITTSDKEGETSELDKHIPDADIIITTPFHPAYITKERLDKAKNLKLVVVAGVGSDHIDLDYINQTGKKISVLEVTGSNVVSVAEHVVMTMLVLVRNFVPAHEQIINHDWEVAAIAKDAYDIEGKTIATIGAGRIGYRVLERLLPFNPKELLYYDYQALPKEAEEKVGARRVENIEELVAQADIVTVNAPLHAGTKGLINKELLSKFKKGAWLVNTARGAICVAEDVAAALESGQLRGYGGDVWFPQPAPKDHPWRDMRNKYGAGNAMTPHYSGTTLDAQTRYAEGTKNILESFFTGKFDYRPQDIILLNGEYVTKAYGKHDKK
B3: L7I|R17V|A28D|A35R|V49I|E91D|L96F|L97H|T99A|E103I|L110F|S111V|S115E|L120R|H121Y|G123D|T138Q|D139G|E140D|Q144E|A149D|Q165D|D174E|A194E|V217M|Q222G|K234H|E237D|P283A, Q88HV5 (parent)
chain: MPFQQGLLATPVPAHARHLFFTLQSPEALPAALDALLPQVDGKQLLLGVGAPLAKALGREIPGLRPFPLLDAAVENPSTQHALWLWLRGDERGDLLLRTQALEQALAPALSLADSVDGFLHRGGHDLTGYEDGTENPTDEEAVQAAIAADGSSFAAFQLWKHDLQYFKSLPQADQDNIIGRRLSDNEELDDAPASAHVKRTAQESFEPEAFMVRRSVSWADQRGAGLAFVALGKSFEAFEVQLRRMSGLEDGIIDGLYRFSRPLTGGYYWCPPMSETGVDLSPLLRA

Variants of: B1
Conditions: Pseudomonas putida (strain ATCC 47054 / DSM 6125 / CFBP 8728 / NCIMB 11950 / KT2440); Fluorescence spectroscopy; whole UniProt chain shown

Row | Variant | Tm | ddG of mutation (higher = less stable)
1 | Q192R A46P V159A A48P Y179H | 55 °C | -0.3 kcal/mol
2 | Q192R A46P V159A C129S | 51 °C | -0.6 kcal/mol
3 | Q192R A46P V159A C129S A178D A88G N131D L143Q | 44 °C | -1.9 kcal/mol
4 | Q192R A46P V159A | 55 °C | -0.8 kcal/mol
5 | Q192R A46P V159A A48P | 55 °C | 3.3 kcal/mol
6 | Q192R A46P V159A C129S D7H A178D | 54 °C | 1.5 kcal/mol

Variants of: B2
Conditions: Candida boidinii; whole UniProt chain shown

Row | Variant | Tm
7 | D149L | 58 °C
8 | C23S | 54 °C
9 | S333Y | 55 °C
10 | A10C | 64 °C
11 | A264P | 59 °C
12 | A141M | 35 °C
13 | N350W | 54 °C

Variants of: B3
Conditions: Pseudomonas putida (strain ATCC 47054 / DSM 6125 / CFBP 8728 / NCIMB 11950 / KT2440); pH 7.6; Fluorescence spectroscopy; whole UniProt chain shown

Row | Variant | Tm
14 | L7I R17V A28D A35R V49I E91D L96F L97H T99A E103I L110F S111V S115E L120R H121Y G123D T138Q D139G E140D Q144E A149D Q165D D174E A194E V217M Q222G K234H E237D P283A | 83 °C
15 | L7I R17V A28D A35R V49I A149D D174E Q222G K234H E237D | 69 °C
16 | A9L S25F A54V E91D D94E L110F G118A L120R H125R D139G A149L S169A V217M S218P Q222G L232F E237D V279L | 70 °C
17 | A9L S25F Q100R L110F G118A L120R H125R D139G A149L S169A E237D | 70 °C
18 | A9L S25F A54V E91D D94E Q100R L110F G118A L120R H125R D139G A149L V217M S218P Q222G L232F E237D | 83 °C
19 | A9L E91D D94E Q100R L110F G118A L120R H125R D139G A149L A155V S169A V217M S218P Q222G L232F V279L | 69 °C
20 | L7I R17V V49I Q165D V217M K234H E237D P283A | 68 °C
21 | A9L S25F A54V A149L V217M S218P Q222G L232F E237D | 66 °C
22 | L7I E91D L110F S111V Q165D D174E A194E V217M Q222G K234H E237D | 71 °C
23 | A9L Q100R L110F G118A L120R H125R D139G L232F V279L | 74 °C
24 | L7I R17V A28D V49I E91D L96F L97H T99A E103I L110F S111V S115E L120R H121Y G123D T138Q D139G E140D Q144E A149D | 65 °C
25 | A9L S25F A54V D94E Q100R L110F A149L A155V V217M S218P Q222G | 66 °C
26 | L7I R17V A28D E91D L96F L97H T99A E103I L110F S111V S115E L120R H121Y G123D T138Q A149D Q165D | 71 °C
27 | L7I R17V V49I Q165D D174E V217M Q222G E237D P283A | 68 °C
28 | A9L S25F A54V D139G S169A D174E E237D | 65 °C
29 | A9L S25F D139G A149L A155V V279L | 68 °C
30 | S25F E91D D94E L110F G118A L120R H125R D139G A149L A155V S169A D174E | 75 °C
31 | L7I R17V A28D A35R E91D E103I L110F S111V S115E L120R H121Y G123D T138Q D139G E140D Q144E Q165D K234H E237D | 73 °C
32 | V49I E91D L96F L97H T99A E103I L110F S111V S115E V217M Q222G | 65 °C
33 | L7I R17V V49I Q165D V217M Q222G K234H P283A | 73 °C
34 | A9L S25F A54V E91D D94E Q100R L110F G118A L120R H125R D139G A149L A155V S169A D174E V217M S218P Q222G L232F E237D V279L | 74 °C
35 | A9L S25F L110F G118A L120R H125R S169A D174E V217M S218P Q222G L232F E237D | 75 °C
36 | L7I R17V A28D A35R L110F S111V S115E L120R H121Y G123D T138Q D139G E140D Q144E A149D Q165D D174E K234H E237D | 65 °C
37 | A28D A35R V49I L110F S111V S115E L120R H121Y G123D T138Q D139G E140D Q144E A149D Q222G P283A | 74 °C
38 | R17V A28D V49I E91D L96F L97H T99A E103I T138Q D139G E140D Q144E A149D Q165D D174E A194E V217M Q222G K234H E237D P283A | 82 °C
39 | L7I R17V A28D A35R V49I E91D L96F L97H T99A E103I Q165D V217M Q222G K234H E237D | 67 °C
40 | A9L S25F D139G A149L A155V | 68 °C
41 | L7I R17V A35R Q165D E237D | 75 °C
42 | L7I A194E Q222G K234H E237D | 65 °C
